From paper PMC10716122

B1: Cyclic GMP-AMP synthase (cGAS), wild type, expressed in human cells [human] / TRIM41, HA-tagged [human] (parent)
chain 1: MQPWHGKAMQRASEAGATAPKASARNARGAPMDPTESPAAPEAALPKAGKFGPARKSGSRQKKSAPDTQERPPVRATGARAKKAPQRAQDTQPSDATSAPGAEGLEPPAAREPALSRAGSCRQRGARCSTKPRPPPGPWDVPSPGLPVSAPILVRRDAAPGASKLRAVLEKLKLSRDDISTAAGMVKGVVDHLLLRLKCDSAFRGVGLLNTGSYYEHVKISAPNEFDVMFKLEVPRIQLEEYSNTRAYYFVKFKRNPKENPLSQFLEGEILSASKMLSKFRKIIKEEINDIKDTDVIMKRKRGGSPAVTLLISEKISVDITLALESKSSWPASTQEGLRIQNWLSAKVRKQLRLKPFYLVPKHAKEGNGFQEETWRLSFSHIEKEILNNHGKSKTCCENKEEKCCRKDCLKLMKYLLEQLKERFKDKKHLDKFSSYHVKTAFFHVCTQNPQDSQWDRKDLGLCFDNCVTYFLQCLRTEKLENYFIPEFNLFSSNLIDKRSKEFLTKQIEYERNNEFPVFDEF
chain 2: MAAVAMTPNPVQTLQEEAVCAICLDYFTDPVSIGCGHNFCRVCVTQLWGGEDEEDRDELDREEEEEDGEEEEVEAVGAGAGWDTPMRDEDYEGDMEEEVEEEEEGVFWTSGMSRSSWDNMDYVWEEEDEEEDLDYYLGDMEEEDLRGEDEEDEEEVLEEVEEEDLDPVTPLPPPPAPRRCFTCPQCRKSFPRRSFRPNLQLANMVQVIRQMHPTPGRGSRVTDQGICPKHQEALKLFCEVDEEAICVVCRESRSHKQHSVVPLEEVVQEYKAKLQGHVEPLRKHLEAVQKMKAKEERRVTELKSQMKSELAAVASEFGRLTRFLAEEQAGLERRLREMHEAQLGRAGAAASRLAEQAAQLSRLLAEAQERSQQGGLRLLQDIKETFNRCEEVQLQPPEVWSPDPCQPHSHDFLTDAIVRKMSRMFCQAARVDLTLDPDTAHPALMLSPDRRGVRLAERRQEVADHPKRFSADCCVLGAQGFRSGRHYWEVEVGGRRGWAVGAARESTHHKEKVGPGGSSVGSGDASSSRHHHRRRRLHLPQQPLLQREVWCVGTNGKRYQAQSSTEQTLLSPSEKPRRFGVYLDYEAGRLGFYNAETLAHVHTFSAAFLGERVFPFFRVLSKGTRIKLCP

Variants of: B1
Test: co-IP (IP: GFP, blot cGAS-HA), band intensity printed under blot
Settings: with TRIM41, HA-tagged [human]; HEK293T cells; TRIM41-GFP co-expressed; 100 μg/mL etoposide for 4 h; parent: 1

ratio to parent | Variant
0.68 | chain 1 S120A
0.51 | chain 1 S305A
